# Molecular target: T1, His6-tagged STAT3, bacterially derived (UniProt P40763 1-770)
# T1 construct: also called His6-STAT3; His6-St3; source: E. coli BL21(DE3), purified (Ni-NTA, eluted with imidazole)
# Test: pull-down
# Conditions: both partners purified
# T1 sequence (P40763 whole entry): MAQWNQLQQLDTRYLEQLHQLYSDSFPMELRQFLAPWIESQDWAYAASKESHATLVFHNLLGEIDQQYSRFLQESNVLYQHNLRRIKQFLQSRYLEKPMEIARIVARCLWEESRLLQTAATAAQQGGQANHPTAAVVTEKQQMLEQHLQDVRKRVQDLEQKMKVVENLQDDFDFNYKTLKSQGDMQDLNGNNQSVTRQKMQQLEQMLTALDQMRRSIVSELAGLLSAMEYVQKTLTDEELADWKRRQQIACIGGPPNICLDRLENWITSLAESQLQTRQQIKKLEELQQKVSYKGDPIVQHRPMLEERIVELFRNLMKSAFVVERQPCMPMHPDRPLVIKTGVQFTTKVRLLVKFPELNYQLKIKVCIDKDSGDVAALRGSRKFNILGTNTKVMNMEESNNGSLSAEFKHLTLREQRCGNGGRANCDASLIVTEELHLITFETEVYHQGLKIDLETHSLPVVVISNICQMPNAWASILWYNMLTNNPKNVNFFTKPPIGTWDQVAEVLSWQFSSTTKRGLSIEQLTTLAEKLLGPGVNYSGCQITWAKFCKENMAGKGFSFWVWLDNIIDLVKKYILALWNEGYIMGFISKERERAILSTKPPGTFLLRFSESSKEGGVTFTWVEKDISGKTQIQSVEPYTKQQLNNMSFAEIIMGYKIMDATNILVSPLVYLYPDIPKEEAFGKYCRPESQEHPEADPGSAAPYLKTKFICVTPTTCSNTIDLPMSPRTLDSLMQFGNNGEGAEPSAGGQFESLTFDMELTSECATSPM
binder,measurement,value
"GST-tagged vIRF-1, bacterially derived (natural protein, also called GST-fused vIRF-1; vIRF-1-GST) MDPGQRPNPFGAPGAIPKKPCLSQGSPGTSGSGAPCDEPSRSESPGEGPSGTGGSAAAGDITRQAVVAAITEWSRTRQLRISTGASEGKASIKDWIVCQVNSGKFPGVEWEDEERTRFRIPVTPLADPCFEWRRDGELGVVYIRERGNMPVDASFKGTRGRRRMLAALRRTRGLQEIGKGISQDGHHFLVFRVRKPEEEQCVECGVVAGAVHDFNNMARLLQEGFFSPGQCLPGEIVTPVPSCTTAEGQEAVIDWGRLFIRMYYNGEQVHELLTTSQSGCRISSALRRDPAVHYCAVGSPGQVWLPNVPNLACEIAKRELCDTLDACAKGILLTSSCNGIFCVCYHNGPVHFIGNTVPPDSGPLLLPQGKPTRIFNPNTFLVGLANSPLPAPSHVTCPLVKLWLGKPVAVGKLEPHAPSPRDFAARCSNFSDACVVLEIMPKPLWDAMQ",binding result,binds

# Source: PMC10695398 (PLOS Pathogens, 2023)
